Experimental data: paper PMC6128827

Target: three-helix bundle composed of syntaxin-1A and SNAP-25 (rat) (UniProt P32851)
Assay: magnetic tweezers; single pre-assembled SNARE complex held between a PEG-biotin glass surface (NeutrAvidin) and an anti-digoxigenin magnetic bead by two 510-bp DNA handles; force ramps at 1 pN/s, force jumps and 1.2-kHz tracking at 10-16 pN; PBS pH 7.4 with 2.5 uM free SNAP-25; no Cpx

rat synaptobrevin-2 (2–97, L32C/I97C) (from UniProt P63045 2-97) (domain or fragment)
average unzipping force (without Cpx): 14.4 pN
